From publication PMC8497999 (iScience, 2021) come the findings set out here.

Where two headings read alike, the source gives them in different places.

Assay in all cases: SEC
A general note: In gel filtration, larger molecules generally elute earlier.

The data set “SEC” deals with the molecule itself.
Data set [1] deals with T1, ACAD9 (non-tagged wild type) (human, UniProt Q9H845 38-621).
T1 sequence: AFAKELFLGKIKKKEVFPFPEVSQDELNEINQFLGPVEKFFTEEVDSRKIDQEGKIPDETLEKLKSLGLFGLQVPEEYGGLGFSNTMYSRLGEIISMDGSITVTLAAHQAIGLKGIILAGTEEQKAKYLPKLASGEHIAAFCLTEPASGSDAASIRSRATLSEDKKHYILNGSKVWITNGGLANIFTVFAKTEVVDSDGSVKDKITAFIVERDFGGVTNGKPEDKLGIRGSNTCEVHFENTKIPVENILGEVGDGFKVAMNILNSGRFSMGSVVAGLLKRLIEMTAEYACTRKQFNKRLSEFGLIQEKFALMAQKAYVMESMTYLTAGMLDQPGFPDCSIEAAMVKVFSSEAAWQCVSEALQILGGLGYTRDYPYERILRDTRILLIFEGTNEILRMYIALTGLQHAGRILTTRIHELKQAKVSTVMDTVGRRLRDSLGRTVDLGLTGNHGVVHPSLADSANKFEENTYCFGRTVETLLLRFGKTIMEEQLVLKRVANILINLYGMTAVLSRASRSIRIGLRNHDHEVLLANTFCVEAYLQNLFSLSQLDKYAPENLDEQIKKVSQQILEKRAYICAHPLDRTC

The target of data set [2] is T1, ACAD9 (non-tagged wild type). The source holds these as a separate data set.
The next data set has as its target T2, ACAD9-His6 R469W (human, UniProt Q9H845 38-621, R469W).
T2 sequence: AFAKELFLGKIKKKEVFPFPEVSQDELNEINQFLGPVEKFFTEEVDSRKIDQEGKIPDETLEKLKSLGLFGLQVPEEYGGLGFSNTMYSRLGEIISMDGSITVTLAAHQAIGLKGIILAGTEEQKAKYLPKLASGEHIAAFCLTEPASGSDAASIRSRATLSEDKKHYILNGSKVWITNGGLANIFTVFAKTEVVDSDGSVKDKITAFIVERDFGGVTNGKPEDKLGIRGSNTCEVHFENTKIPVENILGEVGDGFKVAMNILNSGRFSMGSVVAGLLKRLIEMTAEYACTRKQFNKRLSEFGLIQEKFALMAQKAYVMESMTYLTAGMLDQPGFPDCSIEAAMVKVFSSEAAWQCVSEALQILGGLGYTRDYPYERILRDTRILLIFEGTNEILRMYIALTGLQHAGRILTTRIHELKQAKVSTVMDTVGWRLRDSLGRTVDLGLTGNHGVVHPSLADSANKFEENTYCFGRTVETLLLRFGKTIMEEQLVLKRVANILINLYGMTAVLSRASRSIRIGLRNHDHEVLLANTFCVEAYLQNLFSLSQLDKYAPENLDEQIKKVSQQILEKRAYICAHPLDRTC

The target in the next data set is T3, ACAD9-His6 E426Q (human, UniProt Q9H845 38-621, E426Q).
T3 sequence: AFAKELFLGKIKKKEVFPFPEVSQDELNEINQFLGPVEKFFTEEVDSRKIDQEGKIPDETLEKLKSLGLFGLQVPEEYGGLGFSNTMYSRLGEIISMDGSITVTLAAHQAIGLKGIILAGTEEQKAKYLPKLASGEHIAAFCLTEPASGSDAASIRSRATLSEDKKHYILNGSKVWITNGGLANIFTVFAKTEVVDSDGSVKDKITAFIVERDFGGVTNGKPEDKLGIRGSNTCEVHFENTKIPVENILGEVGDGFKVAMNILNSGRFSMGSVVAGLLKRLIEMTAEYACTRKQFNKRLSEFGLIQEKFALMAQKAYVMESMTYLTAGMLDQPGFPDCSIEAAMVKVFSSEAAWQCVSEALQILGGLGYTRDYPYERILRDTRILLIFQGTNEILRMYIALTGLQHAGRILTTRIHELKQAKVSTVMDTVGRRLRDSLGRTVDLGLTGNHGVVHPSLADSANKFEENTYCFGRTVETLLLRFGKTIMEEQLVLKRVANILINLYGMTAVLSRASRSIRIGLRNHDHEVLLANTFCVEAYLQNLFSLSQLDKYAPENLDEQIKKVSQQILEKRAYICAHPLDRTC

B1: His6-ECSIT (mature human mitochondrial ECSIT with N-terminal His tag) (natural protein)
chain: SSEQSLVPSPPEPRQRPTKALVPFEDLFGQAPGGERDKASFLQTVQKFAEHSVRKRGHIDFIYLALRKMREYGVERDLAVYNQLLNIFPKEVFRPRNIIQRIFVHYPRQQECGIAVLEQMENHGVMPNKETEFLLIQIFGRKSYPMLKLVRLKLWFPRFMNVNPFPVPRDLPQDPVELAMFGLRHMEPDLSARVTIYQVPLPKDSTGAADPPQPHIVGIQSPDQQAALARHNPARPVFVEGPFSLWLRNKCVYYHILRADLLPPEEREVEETPEEWNLYYPMQLDLEYVRSGWDNYEFDINEVEEGPVFAMCMAGAHDQATMAKWIQGLQETNPTLAQIPVVFRLAGSTRELQTSSAGLEEPPLPEDHQEEDDNLQRQQQGQS
For orientation: stoichiometry N means a count of units in the complex or per binding partner. Take B1: the “stoichiometry N” value in the data set “SEC” was 2; in data set [1] it was 1 ECSIT monomer per ACAD9 monomer (2:2); in data set [2], 1 monomer:monomer. Moreover, the binding result with ACAD9-His6 R469W and with ACAD9-His6 E426Q was “binds” in each case.
